± gives the uncertainty stated by the source.
Assay: protein stability index of a GFP-peptide fusion (yeast GPS) (PSI 1-4); higher = more stable; sorted into four equal gates, so the index is relative within each strain
Outline: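 Plasmids isolated from each sorting gate were PCR-amplified and Illumina-sequenced, and barcodes assigned the reads to strains. The gates, four of equal size, were set by GFP/Cherry fluorescence ratio on mid-log cultures in leucine-free medium. These cultures were yeast carrying a pooled library of tiled 17-residue yeast protein peptides fused downstream of GFP on a plasmid that also expresses Cherry. The protein stability index is the sum of every gate's read frequency times its gate number.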

Row | Sequence | protein stability index (doa10∆) | protein stability index (pdr5∆) | protein stability index (san1∆) | protein stability index (ubr1∆)
1 | KGEVVLVNIRTQTSKEQ [ITC1] | 2.4 ± 0.075 | 2.5 ± 0.15 | 2.58 ± 0.1 | 2.56 ± 0.095
2 | ICERIFEQGQALKEDER [RRI2] | – | – | – | 3.21 ± 0.19
3 | KNDNIKKSVNKLDKQIN [POP6] | 2.78 ± 0.049 | 2.87 ± 0.059 | 2.73 ± 0.059 | 2.78 ± 0.046
4 | SSFGSESLTFNEFQLQW [SWI1] | 2.98 ± 0.066 | 2.84 ± 0.056 | 2.56 ± 0.054 | 3.02 ± 0.046
5 | TAMKKVEDGNILVFQVS [RPL25] | 2.53 ± 0.049 | 2.48 ± 0.056 | 2.48 ± 0.052 | 2.8 ± 0.044
6 | MEERDGAKFENIVHNFK [AAR2] | 3.09 ± 0.1 | 2.51 ± 0.097 | 2.41 ± 0.12 | 1.88 ± 0.056
7 | EMGYLIQISKLHYTPIE [RPC82] | 1.51 ± 0.063 | 2.06 ± 0.081 | 1.95 ± 0.13 | 1.47 ± 0.055
8 | SLKCTDPYELKGEVVLV [ITC1] | 2.59 ± 0.2 | 3.1 ± 0.24 | 2.44 ± 0.2 | 2.96 ± 0.13
9 | VLGNSRGVDAGKGNTFE [RPN14] | 2.73 ± 0.25 | 3.01 ± 0.17 | 3.66 ± 0.11 | 3.3 ± 0.12
10 | PPGYEIEELDNPMVPSS [PRP8] | 2.42 ± 0.1 | 2.65 ± 0.066 | 3.26 ± 0.085 | 2.82 ± 0.049
11 | YNHNDGGDGRDYKGAKL [RRI1] | 2.57 ± 0.13 | 3.2 ± 0.088 | 3.14 ± 0.078 | 2.96 ± 0.092
12 | FDLVRNIVKQNEGIDLD [SMC2] | 3.11 ± 0.13 | 3.51 ± 0.12 | 3.24 ± 0.081 | 3.45 ± 0.1
13 | FEEDSDLALPPPPPPPP [PRP8] | 3.08 ± 0.063 | 3.25 ± 0.066 | 3.27 ± 0.072 | 3.23 ± 0.062
14 | IGWCKEDPKRRADTMDF [YJL039C/NUP192] | 3.16 ± 0.21 | 3.56 ± 0.11 | 3.47 ± 0.13 | 3.39 ± 0.12
15 | TTARNDLGVVFARAANG [CSL4] | 1.87 ± 0.056 | 2.02 ± 0.12 | 1.87 ± 0.14 | 2.39 ± 0.048
16 | KMELVYVSDSDDSSSDN [SIR4] | 2.7 ± 0.059 | 2.68 ± 0.058 | 2.47 ± 0.078 | 2.59 ± 0.067
17 | KAMSSRAGVSQVLNRYT [RPB2] | 3.17 ± 0.11 | 3.21 ± 0.096 | 2.97 ± 0.073 | 3.29 ± 0.053
18 | DNETPSKKTSPKATSSA [YOR098C/NUP1] | 2.1 ± 0.05 | 2.52 ± 0.049 | 2.41 ± 0.064 | 3.026 ± 0.029
19 | IGTADIFIRQLKENEEN [BRR2] | 3.61 ± 0.12 | 3.1 ± 0.3 | – | 1.36 ± 0.1

Row | Sequence | protein stability index (doa10∆) | protein stability index (pdr5∆) | protein stability index (san1∆) | protein stability index (ubr1∆)
20 | KVTSYDITGDIRNEGSD [ISW2] | 3.15 ± 0.17 | 3.04 ± 0.21 | 3.21 ± 0.14 | –
21 | SPDQMRNLQMGLRNQNM [GRR1] | 3.23 ± 0.12 | 3.52 ± 0.16 | 3.22 ± 0.088 | 2.71 ± 0.082
22 | SLLKTKLKQQSSTDIPS [RRI1] | 2.15 ± 0.05 | 2.4 ± 0.054 | 2.21 ± 0.082 | 2.44 ± 0.062
23 | YNNRKCWPKDSRMRLIR [PRP8] | 2.05 ± 0.09 | 2.13 ± 0.12 | 2.19 ± 0.11 | 2.64 ± 0.14
24 | QRQLLVQQQQQQQLRNQ [SNF5] | 2.2 ± 0.071 | 2.54 ± 0.11 | 2.44 ± 0.19 | 2.6 ± 0.1
25 | VLEFCKDYEAKTKAMSL [POP1] | 3.06 ± 0.045 | 2.67 ± 0.043 | 2.73 ± 0.037 | 3.06 ± 0.031
26 | RMRNRALREMRKSDQQD [POP1] | 3.61 ± 0.13 | 3.63 ± 0.17 | 3.23 ± 0.11 | 3.13 ± 0.13
27 | LGIKVAELTGDSRLSRK [BRR2] | – | 2.18 ± 0.19 | 2.67 ± 0.16 | –
28 | SLKQYAGNLITTPEINN [SRP68] | 2.69 ± 0.073 | 2.88 ± 0.061 | 2.92 ± 0.076 | 2.31 ± 0.041
29 | IEELDNPMVPSSVNEDT [PRP8] | 3.26 ± 0.075 | 3.22 ± 0.065 | 3.33 ± 0.053 | 3.26 ± 0.049
30 | REAIRPGHEMEDFLDKS [AAR2] | 3.23 ± 0.062 | 2.87 ± 0.056 | 3.24 ± 0.044 | 3.22 ± 0.036
31 | ILTGTPLQNNLPELWAL [SNF2] | 2.24 ± 0.05 | 2.4 ± 0.044 | 2.15 ± 0.055 | 2.3 ± 0.043
32 | KDLKFPLPHRVQKSTKT [RPL20A] | 2.27 ± 0.053 | 2.68 ± 0.05 | 2.58 ± 0.052 | 2.69 ± 0.043
33 | SKMSDESFAELMTKLNS [RPC17] | 3.29 ± 0.12 | 3.67 ± 0.12 | 3.09 ± 0.098 | 3.37 ± 0.12
34 | LNEITNSKVNKLNIETM [DSN1] | 2.81 ± 0.16 | 2.9 ± 0.097 | 2.54 ± 0.077 | 3.08 ± 0.051
35 | SNSSELEPDYQAPFSTS [MED1] | 2.7 ± 0.044 | 2.97 ± 0.057 | 2.82 ± 0.073 | 3.05 ± 0.046
36 | PLPICHANSVVALTGLL [YML031W/NDC1] | 3.13 ± 0.12 | 1.73 ± 0.083 | 2.58 ± 0.099 | 2.5 ± 0.12
37 | QEPSASQVKDSVTETES [SRP68] | 3.27 ± 0.13 | 2.93 ± 0.18 | 3.14 ± 0.18 | 2.81 ± 0.19
38 | AQQVPPYGVYHPPFIKY [SIN4] | 2.99 ± 0.12 | 1.61 ± 0.094 | 2.33 ± 0.074 | 2.18 ± 0.069

Reference: the supplement of paper PMC9732359
